These results are taken from paper PMC9463131, “SLITRK1-mediated noradrenergic projection suppression in the neonatal prefrontal cortex” (Communications Biology, 2022).

In experiment [1] the target is T1, SLITRK1-A444S-Fc (human, UniProt Q96PX8 18-616, A444S).
T1 construct: signal peptide in the construct; human SLITRK1 extracellular domain, amino acid number 1-616 in NP_443142, with the patient-derived variant A444S; A444S was found in 2 of 364 patients with bipolar disorder; made by site-directed mutagenesis; also called SLITRK1 ECD-Fc A444S
T1 sequence (looked up): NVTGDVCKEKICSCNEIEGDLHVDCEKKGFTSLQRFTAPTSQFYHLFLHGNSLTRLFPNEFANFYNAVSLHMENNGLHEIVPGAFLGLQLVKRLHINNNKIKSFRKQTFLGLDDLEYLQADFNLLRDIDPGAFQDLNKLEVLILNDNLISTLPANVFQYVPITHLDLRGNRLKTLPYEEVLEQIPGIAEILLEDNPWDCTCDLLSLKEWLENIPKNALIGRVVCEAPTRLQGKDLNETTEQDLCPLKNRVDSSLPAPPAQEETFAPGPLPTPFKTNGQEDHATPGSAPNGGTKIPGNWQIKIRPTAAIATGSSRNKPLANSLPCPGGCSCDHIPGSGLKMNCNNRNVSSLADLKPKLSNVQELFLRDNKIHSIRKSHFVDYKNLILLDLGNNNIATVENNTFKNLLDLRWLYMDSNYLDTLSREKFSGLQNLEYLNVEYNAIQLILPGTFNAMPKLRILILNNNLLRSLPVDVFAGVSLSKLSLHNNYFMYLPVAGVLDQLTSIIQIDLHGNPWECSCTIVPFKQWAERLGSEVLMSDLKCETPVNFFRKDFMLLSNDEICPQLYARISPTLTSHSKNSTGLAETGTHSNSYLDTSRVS
The experiment in a line: quartz crystal microbalance; AffinixQ, 27 MHz; about 200 femtomoles SLITRK1 ECD-Fc (WT, S330A or A444S) immobilised through anti-human IgG Fc on the gold resonator; ECD-His6 proteins added at several concentrations; 50 mM Tris-HCl pH 7.6, 15 mM NaCl, 140 mM KCl, 0.5 mM MgCl2, 2 mM CaCl2; 25 ± 1 °C; KD = koff/kon. The conditions noted are these: both partners purified.

The target of experiment [2] is T2, SLITRK1 ECD-immunoglobulin Fc domain-fusion protein (SLITRK1-WT-Fc) (human, UniProt Q96PX8 18-616).
T2 construct: signal peptide in the construct; human SLITRK1 extracellular domain, amino acid number 1-616 in NP_443142; also called SLITRK1 ECD-Fc; SLITRK1 ECD-Fc fusion protein
T2 sequence (looked up): T1 sequence (looked up) with S427A
The experiment is described as above. Particulars: both partners purified.

Experiment [3] has as its target T3, SLITRK1-S330A-Fc (human, UniProt Q96PX8 18-616, S330A).
T3 construct: signal peptide in the construct; human SLITRK1 extracellular domain, amino acid number 1-616 in NP_443142, with the patient-derived variant S330A; S330A is a variant found in patients and controls (global MAF 0.002); made by site-directed mutagenesis; also called SLITRK1 ECD-Fc S330A
T3 sequence (looked up): T1 sequence (looked up) with S313A, S427A
Described as above. Particulars: both partners purified.

Experiment [4] deals with T4, SLITRK1-S330A-Fc (human, UniProt Q96PX8 18-616, S330A).
T4 sequence: T1 sequence (looked up) with S313A, S427A
The experiment in a line: BLI. On the technique in general: Biolayer interferometry detects binding as a change in optical thickness at a sensor tip.

Experiment [5] concerns the target T5, SLITRK1-A444S-Fc (human, UniProt Q96PX8 18-616, A444S).
T5 sequence: T1 sequence (looked up)
The experiment in a line: BLI.

Experiment [6] deals with T4, SLITRK1-S330A-Fc. The experiment in a line: BLI. The source holds these as a separate data set.
For experiment [7], the target named is T5, SLITRK1-A444S-Fc. The experiment in a line: BLI. This is another data set of the same source.

Numbering of substitutions follows the chain as printed.

B1: human Neurofascin ECD-His6 (8208-NF-050, R&D Systems) (domain or fragment)
chain: IEIPMDLTQPPTITKQSAKDHIVDPRDNILIECEAKGNPAPSFHWTRNSRFFNIAKDPRVSMRRRSGTLVIDFRSGGRPEEYEGEYQCFARNKFGTALSNRIRLQVSKSPLWPKENLDPVVVQEGAPLTLQCNPPPGLPSPVIFWMSSSMEPITQDKRVSQGHNGDLYFSNVMLQDMQTDYSCNARFHFTHTIQQKNPFTLKVLTNHPYNDSSLRNHPDMYSARGVAERTPSFMYPQGTASSQMVLRGMDLLLECIASGVPTPDIAWYKKGGDLPSDKAKFENFNKALRITNVSEEDSGEYFCLASNKMGSIRHTISVRVKAAPYWLDEPKNLILAPGEDGRLVCRANGNPKPTVQWMVNGEPLQSAPPNPNREVAGDTIIFRDTQISSRAVYQCNTSNEHGYLLANAFVSVLDVPPRMLSPRNQLIRVILYNRTRLDCPFFGSPIPTLRWFKNGQGSNLDGGNYHVYENGSLEIKMIRKEDQGIYTCVATNILGKAENQVRLEVKDPTRIYRMPEDQVARRGTTVQLECRVKHDPSLKLTVSWLKDDEPLYIGNRMKKEDDSLTIFGVAERDQGSYTCVASTELDQDLAKAYLTVLGRPDRPRDLELTDLAERSVRLTWIPGDANNSPITDYVVQFEEDQFQPGVWHDHSKYPGSVNSAVLRLSPYVNYQFRVIAINEVGSSHPSLPSERYRTSGAPPESNPGDVKGEGTRKNNMEITWTPMNATSAFGPNLRYIVKWRRRETREAWNNVTVWGSRYVVGQTPVYVPYEIRVQAENDFGKGPEPESVIGYSGEDYPRAAPTEVKVRVMNSTAISLQWNRVYSDTVQGQLREYRAYYWRESSLLKNLWVSQKRQQASFPGDRLRGVVSRLFPYSNYKLEMVVVNGRGDGPRSETKEFTTPEGVPSAPRRFRVRQPNLETINLEWDHPEHPNGIMIGYTLKYVAFNGTKVGKQIVENFSPNQTKFTVQRTDPVSRYRFTLSARTQVGSGEAVTEESPAPPNEAYTNNQADIATQGW
The term Kd denotes the constant that tells how readily two partners part at equilibrium. Higher therefore signals lower affinity. A word on the koff: it is the rate constant with which the complex falls apart. B1: the results for the Kd (in the experiment with SLITRK1-A444S-Fc [1]; in experiment [2]; with SLITRK1-S330A-Fc [3]) were 14.2 nM, 16.6 nM and 59.3 nM, respectively. The koff with SLITRK1-S330A-Fc [4] is 0.00665 s⁻¹; in the experiment with SLITRK1-A444S-Fc [5], 0.00577 s⁻¹.

B2: L1CAM ECD-His6 (777-NC-100, R&D Systems) (domain or fragment)
chain: IQIPEEYEGHHVMEPPVITEQSPRRLVVFPTDDISLKCEASGKPEVQFRWTRDGVHFKPKEELGVTVYQSPHSGSFTITGNNSNFAQRFQGIYRCFASNKLGTAMSHEIRLMAEGAPKWPKETVKPVEVEEGESVVLPCNPPPSAEPLRIYWMNSKILHIKQDERVTMGQNGNLYFANVLTSDNHSDYICHAHFPGTRTIIQKEPIDLRVKATNSMIDRKPRLLFPTNSSSHLVALQGQPLVLECIAEGFPTPTIKWLRPSGPMPADRVTYQNHNKTLQLLKVGEEDDGEYRCLAENSLGSARHAYYVTVEAAPYWLHKPQSHLYGPGETARLDCQVQGRPQPEVTWRINGIPVEELAKDQKYRIQRGALILSNVQPSDTMVTQCEARNRHGLLLANAYIYVVQLPAKILTADNQTYMAVQGSTAYLLCKAFGAPVPSVQWLDEDGTTVLQDERFFPYANGTLGIRDLQANDTGRYFCLAANDQNNVTIMANLKVKDATQITQGPRSTIEKKGSRVTFTCQASFDPSLQPSITWRGDGRDLQELGDSDKYFIEDGRLVIHSLDYSDQGNYSCVASTELDVVESRAQLLVVGSPGPVPRLVLSDLHLLTQSQVRVSWSPAEDHNAPIEKYDIEFEDKEMAPEKWYSLGKVPGNQTSTTLKLSPYVHYTFRVTAINKYGPGEPSPVSETVVTPEAAPEKNPVDVKGEGNETTNMVITWKPLRWMDWNAPQVQYRVQWRPQGTRGPWQEQIVSDPFLVVSNTSTFVPYEIKVQAVNSQGKGPEPQVTIGYSGEDYPQAIPELEGIEILNSSAVLVKWRPVDLAQVKGHLRGYNVTYWREGSQRKHSKRHIHKDHVVVPANTTSVILSGLRPYSSYHLEVQAFNGRGSGPASEFTFSTPEGVPGHPEALHLECQSNTSLLLRWQPPLSHNGVLTGYVLSYHPLDEGGKGQLSFNLRDPELRTHNLTDLSPHLRYRFQLQATTKEGPGEAIVREGGTMALSGISDFGNISATAGENYSVVSWVPKEGQCNFRFHILFKALGEEKGGASLSPQYVSYNQSSYTQWDLQPDTDYEIHLFKERMFRHQMAVKTNGTGRVRLPPAGFATE
Regarding B2, the values for the koff in the experiment with SLITRK1-S330A-Fc [4] and with SLITRK1-A444S-Fc [5] were 0.00084 s⁻¹ and 0.0008 s⁻¹, respectively. Moreover, the Kd in the experiment with SLITRK1-S330A-Fc [6] amounted to 5.83 nM; with SLITRK1-A444S-Fc [7], 4.69 nM.
